Values of other authors, collected in paper PMC2627783.

Molecular target: IscU (Escherichia coli) (UniProt P0ACD4)
Assay: ITC

Sequence of HscB (P0A6L9 whole entry): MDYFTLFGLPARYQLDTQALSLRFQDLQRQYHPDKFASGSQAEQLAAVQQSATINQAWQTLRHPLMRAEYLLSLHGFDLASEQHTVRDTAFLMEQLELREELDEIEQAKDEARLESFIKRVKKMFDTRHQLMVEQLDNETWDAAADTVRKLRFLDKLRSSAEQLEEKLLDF
Sequence of IscU (Escherichia coli) (P0ACD4 whole entry): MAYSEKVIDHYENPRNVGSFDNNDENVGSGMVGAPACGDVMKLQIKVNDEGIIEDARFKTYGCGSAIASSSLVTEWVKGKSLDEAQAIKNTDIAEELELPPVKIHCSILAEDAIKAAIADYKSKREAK

HscB (from UniProt P0A6L9)
Kd: 10 µM
